Publication doi:10.1101/2021.10.29.466484, “Clamping of DNA shuts the condensin neck gate” (bioRxiv, 2021)

Tests used:
Ycg1 = target: T1, Ycg1 (S. cerevisiae, UniProt Q06680 1-1035); assay: cryo-EM structure; condensin pentamer (Smc2, Smc4, Brn1, Ycs4, Ycg1) with 80 bp dsDNA, ADP and BeF3; separate maps of the head module and of Ycg1-DNA from one dataset; details: both partners purified
T1 construct: Ycg1, HAWK subunit of budding yeast (S. cerevisiae) condensin, wild type
T1 sequence: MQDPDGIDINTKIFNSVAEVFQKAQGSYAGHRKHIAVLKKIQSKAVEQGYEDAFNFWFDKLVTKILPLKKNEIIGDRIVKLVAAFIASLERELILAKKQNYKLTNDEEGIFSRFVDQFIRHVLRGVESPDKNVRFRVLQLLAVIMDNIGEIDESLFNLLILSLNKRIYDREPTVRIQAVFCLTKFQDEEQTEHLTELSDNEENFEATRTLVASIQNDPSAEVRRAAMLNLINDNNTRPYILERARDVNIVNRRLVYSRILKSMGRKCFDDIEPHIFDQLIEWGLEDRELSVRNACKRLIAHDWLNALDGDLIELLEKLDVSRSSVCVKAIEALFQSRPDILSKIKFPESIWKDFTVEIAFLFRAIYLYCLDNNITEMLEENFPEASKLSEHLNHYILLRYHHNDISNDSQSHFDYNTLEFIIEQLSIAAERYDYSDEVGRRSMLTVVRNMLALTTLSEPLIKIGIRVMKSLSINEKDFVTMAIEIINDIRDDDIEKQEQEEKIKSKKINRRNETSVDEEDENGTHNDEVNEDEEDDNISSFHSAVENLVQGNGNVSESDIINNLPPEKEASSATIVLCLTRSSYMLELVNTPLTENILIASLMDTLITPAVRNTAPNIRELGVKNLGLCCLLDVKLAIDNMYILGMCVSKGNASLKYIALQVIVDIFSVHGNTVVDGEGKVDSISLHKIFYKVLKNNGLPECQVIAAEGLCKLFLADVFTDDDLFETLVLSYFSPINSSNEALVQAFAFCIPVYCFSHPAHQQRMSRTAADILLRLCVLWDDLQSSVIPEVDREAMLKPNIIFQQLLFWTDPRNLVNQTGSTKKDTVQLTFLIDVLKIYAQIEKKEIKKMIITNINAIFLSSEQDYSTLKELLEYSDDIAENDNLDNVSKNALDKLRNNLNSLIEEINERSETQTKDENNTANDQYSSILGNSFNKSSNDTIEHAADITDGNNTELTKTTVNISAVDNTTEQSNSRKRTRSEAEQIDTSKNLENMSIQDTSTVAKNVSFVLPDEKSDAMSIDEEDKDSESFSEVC

Smc4 = target: T2, Smc4 (S. cerevisiae, UniProt Q12267 1-1418); assay: as above; details: both partners purified
T2 construct: Smc4, SMC subunit of budding yeast (S. cerevisiae) condensin, wild type; Only the head domain and proximal coiled coil are resolved in the maps; also called SMC4-3xStrepII
T2 sequence: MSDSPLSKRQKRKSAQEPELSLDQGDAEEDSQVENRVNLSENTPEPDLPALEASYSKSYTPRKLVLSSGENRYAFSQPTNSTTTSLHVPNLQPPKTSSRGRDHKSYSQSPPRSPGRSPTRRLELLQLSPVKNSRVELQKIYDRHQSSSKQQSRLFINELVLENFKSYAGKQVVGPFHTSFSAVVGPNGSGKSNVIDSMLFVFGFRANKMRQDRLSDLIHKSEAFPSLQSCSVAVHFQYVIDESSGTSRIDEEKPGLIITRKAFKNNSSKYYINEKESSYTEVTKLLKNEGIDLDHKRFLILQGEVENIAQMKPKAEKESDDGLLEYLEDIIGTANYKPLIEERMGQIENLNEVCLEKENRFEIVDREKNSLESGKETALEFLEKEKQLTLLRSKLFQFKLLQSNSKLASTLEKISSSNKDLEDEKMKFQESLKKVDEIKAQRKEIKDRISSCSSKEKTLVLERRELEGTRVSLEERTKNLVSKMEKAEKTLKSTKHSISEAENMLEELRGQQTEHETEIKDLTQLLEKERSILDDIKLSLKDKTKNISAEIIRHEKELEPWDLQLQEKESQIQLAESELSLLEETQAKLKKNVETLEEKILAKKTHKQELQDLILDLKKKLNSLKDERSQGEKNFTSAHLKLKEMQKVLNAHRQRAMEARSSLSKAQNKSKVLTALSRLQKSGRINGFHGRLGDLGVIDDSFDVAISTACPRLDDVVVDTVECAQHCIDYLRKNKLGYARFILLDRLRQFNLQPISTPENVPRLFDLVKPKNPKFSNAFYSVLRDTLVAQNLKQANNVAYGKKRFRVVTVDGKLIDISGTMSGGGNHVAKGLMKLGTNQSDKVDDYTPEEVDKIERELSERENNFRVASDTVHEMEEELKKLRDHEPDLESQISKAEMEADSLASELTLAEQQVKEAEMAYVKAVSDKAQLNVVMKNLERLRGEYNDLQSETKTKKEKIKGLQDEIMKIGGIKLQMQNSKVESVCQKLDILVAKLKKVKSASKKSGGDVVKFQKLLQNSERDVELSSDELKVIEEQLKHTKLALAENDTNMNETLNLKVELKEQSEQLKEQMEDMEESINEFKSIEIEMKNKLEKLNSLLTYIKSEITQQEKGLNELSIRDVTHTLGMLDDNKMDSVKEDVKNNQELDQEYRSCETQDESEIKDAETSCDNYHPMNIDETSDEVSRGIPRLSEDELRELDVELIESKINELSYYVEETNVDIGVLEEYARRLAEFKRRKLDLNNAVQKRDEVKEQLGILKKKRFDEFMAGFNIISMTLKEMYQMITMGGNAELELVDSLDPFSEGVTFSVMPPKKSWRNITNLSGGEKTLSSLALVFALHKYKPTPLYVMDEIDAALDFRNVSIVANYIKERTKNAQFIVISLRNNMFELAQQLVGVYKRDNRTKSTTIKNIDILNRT

B1: Brn1 (natural protein, S. cerevisiae)
chain: MTTQLRYENNDDDERVEYNLFTNRSTMMANFEEWIKMATDNKINSRNSWNFALIDYFYDLDVLKDGENNINFQKASATLDGCIKIYSSRVDSVTTETGKLLSGLAQRKTNGASNGDDSNGGNGEGLGGDSDEANIEIDPLTGMPISNDPDVNNTRRRVYNRVLETTLVEFETIKMKELDQELIIDPLFKKALVDFDEGGAKSLLLNTLNIDNTARVIFDASIKDTQNVGQGKLQRKEEELIERDSLVDDENEPSQSLISTRNDSTVNDSVISAPSMEDEILSLGMDFIKFDQIAVCEISGSIEQLRNVVEDINQAKDFIENVNNRFDNFLTEEELQAAVPDNAEDDSDGFDMGMQQELCYPDENHDNTSHDEQDDDNVNSTTGSIFEKDLMAYFDENLNRNWRGREHWKVRNFKKANLVNKESDLLEETRTTIGDTTDKNTTDDKSMDTKKKHKQKKVLEIDFFKTDDSFEDKVFASKGRTKIDMPIKNRKNDTHYLLPDDFHFSTDRITRLFIKPGQKMSLFSHRKHTRGDVSSGLFEKSTVSANHSNNDIPTIADEHFWADNYERKEQEEKEKEQSKEVGDVVGGALDNPFEDDMDGVDFNQAFEGTDDNEEASVKLDLQDDEDHKFPIRENKVTYSRVSKKVDVRRLKKNVWRSINNLIQEHDSRKNREQSSNDSETHTEDESTKELKFSDIIQGISKMYSDDTLKDISTSFCFICLLHLANEHGLQITHTENYNDLIVNYEDLATTQAAS
notes: Brn1, kleisin subunit of budding yeast (S. cerevisiae) condensin, wild type; also called kleisin Brn1; BRN1-HA3-His12
Does B1 bind (Ycg1)?
Result: binds

Does B1 bind (Smc4)?
Result: binds
